Data published in patent EP1736482A1 (INSERM (Institut National de la Santé et de la Recherche …, dated 2006).

Target: T1, recombinant human 4-1BB-Fc chimera (R&D Systems) (human, UniProt Q07011 24-186)
T1 construct: Bought; Covalently coupled to a CM5 chip at 500 resonance units; also called 4-IBB-Fc; recombinant 4-1BB; Fc part of the bought chimera not given, not described
Test: SPR (BIAcore 2000), 4-1BB-Fc coupled to CM5 chip, ligand in flow, 25°C

Kd: 55.2 nM
fold lower association rate (kon) against WT AviTag-4-1BBL: 30 fold
koff: 0.00037 s⁻¹
kon: 6700 M⁻¹ s⁻¹
B1: FLAG-4-1BBL (Alexis), FLAG peptide coupled to the TNF homology domain of human 4-1BBL through an undefined 11 aa linker (ligand, UniProt P41273 93-254, looked up)
chain: AQLVAQNVLLIDGPLSWYSDPGLAGVSLTGGLSYKEDTKELVVAKAGVYYVFFQLELRRVVAGEGSGSVSLALHLQPLRSAAGAAALALTVDLPPASSEARNSAFGFQGRLLHLSAGQRLGVHLHTEARARHAWQLTQGATVLGLFRVTPEIPAGLPSPRSE
notes: domain: TNF homology domain (THD); Bought from Alexis, produced in HEK293; also called FLAG-tagged 4-1BBL; soluble FLAG-4-1BBL; not shown: FLAG peptide (8aa); undefined 11aa linker
